Assay results taken from the RNAGym collection of RNA variant scans (doi:10.1021/acssynbio.7b00057).

B1: Pistol ribozyme (parent)
chain: GGGUCGUUGUUCCAUAAUCGCGUGGAUAUGGCACGCAAGUUUCUACCGGGCACCGUAAAUGUCCGACUGGAGCCGUUCGGGCGGCUAUAAACAGACCUCAGGCCCGAAGCGUGGCGGCACCUGCCGCCGGUGGUAAAAAAGAUCGGAAGAGCACACGUCU

Variants of: B1
Test: aptazyme ON/OFF ratio, guanine; higher = stronger switching; co-transcriptional cleavage with and without guanine
In the case of U8A U11C C12U C13G, the “aptazyme ON/OFF ratio” value is reported as 1.33. In the case of U8A U11C C12G C13G, the “aptazyme ON/OFF ratio” value is reported as 1.32. For U8A U11C C12G C13U, the “aptazyme ON/OFF ratio” value was 1.12. In the case of U8A U11C C12G C13A, the “aptazyme ON/OFF ratio” value is reported as 1.31. In the case of U8C G9A U10A U11C C12A C13G, the “aptazyme ON/OFF ratio” value is reported as 1.18. In the case of U8C G9A U10A U11C C12A C13U, the “aptazyme ON/OFF ratio” value is reported as 1.19. With U8C G9A U10A U11C C12A C13A the “aptazyme ON/OFF ratio” value was 1.17. In the case of U8A U10C U11G C12A C13U, the “aptazyme ON/OFF ratio” value is reported as 1.25. In the case of U8A U10C U11G C12A C13A, the “aptazyme ON/OFF ratio” value is reported as 1.26. For U8A U10C U11G C12A C13G, the “aptazyme ON/OFF ratio” value was 1.23. With U8A U10C U11A C12U C13U the “aptazyme ON/OFF ratio” value was 1.31. For U8A U10C U11A C12U C13G, the “aptazyme ON/OFF ratio” value was 1.23. In the case of U8A U10C U11A C12U C13A, the “aptazyme ON/OFF ratio” value is reported as 1.16. For U8C G9A U10C C12A, the “aptazyme ON/OFF ratio” value was 1.35. For U8C G9A U10C C12U, the “aptazyme ON/OFF ratio” value was 1.95. In the case of U8C G9A U10C C12G, the “aptazyme ON/OFF ratio” value is reported as 1.24. For U8A U11A C13G, the “aptazyme ON/OFF ratio” value was 1.05. For U8A U11A C13U, the “aptazyme ON/OFF ratio” value was 1.15. With U8A U11A C13A the “aptazyme ON/OFF ratio” value was 1.19. With U8A U10G U11A C12G C13U the “aptazyme ON/OFF ratio” value was 1.15. For U8A U10G U11A C12G C13A, the “aptazyme ON/OFF ratio” value was 1.2. In the case of U8A U10G U11A C12G C13G, the “aptazyme ON/OFF ratio” value is reported as 1.51. For U8C G9A U10A U11A, the “aptazyme ON/OFF ratio” value was 1.47. In the case of U8C G9A U10A U11C, the “aptazyme ON/OFF ratio” value is reported as 1.05. For U8C G9A U10A U11G, the “aptazyme ON/OFF ratio” value was 1.45. For U8C G9A C13G, the “aptazyme ON/OFF ratio” value was 1.07. In the case of U8C G9A C13U, the “aptazyme ON/OFF ratio” value is reported as 1.43. With U8C G9A C13A the “aptazyme ON/OFF ratio” value was 1.22. In the case of U8A U10G U11A C12U C13A, the “aptazyme ON/OFF ratio” value is reported as 1.42. In the case of U8A U10G U11A C12U C13U, the “aptazyme ON/OFF ratio” value is reported as 1.31. In the case of U8A U10G U11A C12U C13G, the “aptazyme ON/OFF ratio” value is reported as 1.35. For U8C C12A, the “aptazyme ON/OFF ratio” value was 1.52. With U8C C12U the “aptazyme ON/OFF ratio” value was 1.49. For U8C C12G, the “aptazyme ON/OFF ratio” value was 1.38. In the case of U8C G9A U10G C12A, the “aptazyme ON/OFF ratio” value is reported as 1.16. For U8C G9A U10C, the “aptazyme ON/OFF ratio” value was 3.49. With U8C G9A U10A the “aptazyme ON/OFF ratio” value was 1.78. In the case of U8C G9A U10G, the “aptazyme ON/OFF ratio” value is reported as 1.57. For U8C G9A U10A U11C C12G, the “aptazyme ON/OFF ratio” value was 1.29. With U8C G9A U10A U11C C12A the “aptazyme ON/OFF ratio” value was 1.25. In the case of U8C G9A U10A U11C C12U, the “aptazyme ON/OFF ratio” value is reported as 1.09. With U8A U10C C12A C13U the “aptazyme ON/OFF ratio” value was 1.26. In the case of U8A U10G U11G C12G C13U, the “aptazyme ON/OFF ratio” value is reported as 1.32. In the case of U8A U10G U11G C12G C13G, the “aptazyme ON/OFF ratio” value is reported as 1.06. For U8A U10G U11G C12G C13A, the “aptazyme ON/OFF ratio” value was 1.45. In the case of U8A U10C U11C C12A C13A, the “aptazyme ON/OFF ratio” value is reported as 1.18. With U8A U10C U11C C12A C13G the “aptazyme ON/OFF ratio” value was 1.14. For U8A U10C U11C C12A C13U, the “aptazyme ON/OFF ratio” value was 1.07. In the case of U8A U10G C12U, the “aptazyme ON/OFF ratio” value is reported as 1.58. With U8A U10G C12A the “aptazyme ON/OFF ratio” value was 1.31. With U8A U10G C12G the “aptazyme ON/OFF ratio” value was 1.29. With U8A U10C U11G C13A the “aptazyme ON/OFF ratio” value was 1.21. With U8A U10C U11G C13U the “aptazyme ON/OFF ratio” value was 1.19. With U8A U10C U11G C13G the “aptazyme ON/OFF ratio” value was 1.13. In the case of U8A U10G C12A C13U, the “aptazyme ON/OFF ratio” value is reported as 1.23. With U8A U10G C12A C13G the “aptazyme ON/OFF ratio” value was 1.09. In the case of U8A U10G C12A C13A, the “aptazyme ON/OFF ratio” value is reported as 1.23. With U8A U10G U11A C12A C13A the “aptazyme ON/OFF ratio” value was 1.3. With U8A U10G U11A C12A C13G the “aptazyme ON/OFF ratio” value was 1.15. For U8A U10G U11A C12A C13U, the “aptazyme ON/OFF ratio” value was 1.11. In the case of U8C G9A C12U C13G, the “aptazyme ON/OFF ratio” value is reported as 1.19. In the case of U8C G9A C12U C13U, the “aptazyme ON/OFF ratio” value is reported as 1.25. In the case of U8C G9A C12U C13A, the “aptazyme ON/OFF ratio” value is reported as 1.17. For U8C G9A U10A U11G C13G, the “aptazyme ON/OFF ratio” value was 1.08. With U8C G9A U10A U11G C13A the “aptazyme ON/OFF ratio” value was 1.19. For U8C G9A U10A U11G C13U, the “aptazyme ON/OFF ratio” value was 1.18. In the case of U8A U10G U11C C13A, the “aptazyme ON/OFF ratio” value is reported as 1.06. In the case of U8A U10G U11C C13U, the “aptazyme ON/OFF ratio” value is reported as 1.04. With U8A U10G U11C C13G the “aptazyme ON/OFF ratio” value was 1.11. For U8C G9A U10A U11G C12G C13U, the “aptazyme ON/OFF ratio” value was 1.14. In the case of U8C G9A U10A U11G C12G C13G, the “aptazyme ON/OFF ratio” value is reported as 1.17. In the case of U8C G9A U10A U11G C12G C13A, the “aptazyme ON/OFF ratio” value is reported as 1.16. With U8A U10C C12G the “aptazyme ON/OFF ratio” value was 1.3. With U8A U10C C12U the “aptazyme ON/OFF ratio” value was 3.12. In the case of U8A U10G U11A, the “aptazyme ON/OFF ratio” value is reported as 1.09. For U8A U10G U11C, the “aptazyme ON/OFF ratio” value was 1.02. With U8A U10G U11G the “aptazyme ON/OFF ratio” value was 1.16. In the case of U8C G9A U10A U11G C12A C13A, the “aptazyme ON/OFF ratio” value is reported as 1.1. For U8C G9A U10A U11G C12A C13U, the “aptazyme ON/OFF ratio” value was 1.11. In the case of U8C G9A U10A U11G C12A C13G, the “aptazyme ON/OFF ratio” value is reported as 1.17. With U8C C13G the “aptazyme ON/OFF ratio” value was 1.11. In the case of U8C C13A, the “aptazyme ON/OFF ratio” value is reported as 1.36. In the case of U8C C13U, the “aptazyme ON/OFF ratio” value is reported as 1.55. In the case of U8A U11G C13U, the “aptazyme ON/OFF ratio” value is reported as 1.04.
